Measurements: article PMC7789494

Substrate: O=C1C(Cl)=CC(=Nc2ccc(O)cc2)C=C1Cl
Assay: purified protein
Type: biochemical, Phanerodontia chrysosporium
Details: 500 µM cellobiose, 50 mM sodium acetate pH 4.5, electron acceptor

B1: PcCDHTr (Phanerodontia chrysosporium) (protein)
chain: QSASQFTDPTTGFQFTGITDPVHDVTYGFVFPPLATSGAQSTEFIGEVVAPIASKWIGIALGGAMNNDLLLVAWANGNQIVSSTRWATGYVQPTAYTGTATLTTLPETTINSTHWKWVFRCQGCTEWNNGGGIDVTSQGVLAWAFSNVAVDDPSDPQSTFSEHTDFGFFGIDYSTAHSANYQNYLNGDSGNPTTTSTKPTSTSSSVTTGPTVSATPYDYIIVGAGPGGIIAADRLSEAGKKVLLLERGGPSTKQTGGTYVAPWATSSGLTKFDIPGLFESLFTDSNPFWWCKDITVFAGCLVGGGTSVNGALYWYPNDGDFSSSVGWPSSWTNHAPYTSKLSSRLPSTDHPSTDGQRYLEQSFNVVSQLLKGQGYNQATINDNPNYKDHVFGYSAFDFLNGKRAGPVATYLQTALARPNFTFKTNVMVSNVVRNGSQILGVQTNDPTLGPNGFIPVTPKGRVILSAGAFGTSRILFQSGIGPTDMIQTVQSNPTAAAALPPQNQWINLPVGMNAQDNPSINLVFTHPSIDAYENWADVWSNPRPADAAQYLANQSGVFAGASPKLNFWRAYSGSDGFTRYAQGTVRPGAASVNSSLPYNASQIFTITVYLSTGIQSRGRIGIDAALRGTVLTPPWLVNPVDKTVLLQALHDVVSNIGSIPGLTMITPDVTQTLEEYVDAYDPATMNSNHWVSSTTIGSSPQSAVVDSNVKVFGTNNLFIVDAGIIPHLPTGNPQGTLMSAAEQAAAKILALAGGP
notes: full two-domain flavocytochrome, native signal peptide (cleaved), untagged, secreted by Trichoderma reesei delta-xyr1; 83 kDa by SDS-PAGE
  Km: 4.31 ± 0.11 µM
  kcat: 24.4 ± 0.2 s⁻¹
  kcat/Km: 5.66e+06 ± 159000 M⁻¹ s⁻¹
